Reference: US20190041402A1 (GOVERNING COUNCIL OF THE UNIVERSITY OF TORONTO, published 2019)

Key:
[1] = target: T1, soluble human αKlotho (recombinant) (human, UniProt Q9UEF7 34-981); test: competitive Fab-phage ELISA, soluble human αKlotho against immobilised human αKlotho
T1 construct: also called Hu aKL; recombinant human αKlotho
T1 sequence (looked up): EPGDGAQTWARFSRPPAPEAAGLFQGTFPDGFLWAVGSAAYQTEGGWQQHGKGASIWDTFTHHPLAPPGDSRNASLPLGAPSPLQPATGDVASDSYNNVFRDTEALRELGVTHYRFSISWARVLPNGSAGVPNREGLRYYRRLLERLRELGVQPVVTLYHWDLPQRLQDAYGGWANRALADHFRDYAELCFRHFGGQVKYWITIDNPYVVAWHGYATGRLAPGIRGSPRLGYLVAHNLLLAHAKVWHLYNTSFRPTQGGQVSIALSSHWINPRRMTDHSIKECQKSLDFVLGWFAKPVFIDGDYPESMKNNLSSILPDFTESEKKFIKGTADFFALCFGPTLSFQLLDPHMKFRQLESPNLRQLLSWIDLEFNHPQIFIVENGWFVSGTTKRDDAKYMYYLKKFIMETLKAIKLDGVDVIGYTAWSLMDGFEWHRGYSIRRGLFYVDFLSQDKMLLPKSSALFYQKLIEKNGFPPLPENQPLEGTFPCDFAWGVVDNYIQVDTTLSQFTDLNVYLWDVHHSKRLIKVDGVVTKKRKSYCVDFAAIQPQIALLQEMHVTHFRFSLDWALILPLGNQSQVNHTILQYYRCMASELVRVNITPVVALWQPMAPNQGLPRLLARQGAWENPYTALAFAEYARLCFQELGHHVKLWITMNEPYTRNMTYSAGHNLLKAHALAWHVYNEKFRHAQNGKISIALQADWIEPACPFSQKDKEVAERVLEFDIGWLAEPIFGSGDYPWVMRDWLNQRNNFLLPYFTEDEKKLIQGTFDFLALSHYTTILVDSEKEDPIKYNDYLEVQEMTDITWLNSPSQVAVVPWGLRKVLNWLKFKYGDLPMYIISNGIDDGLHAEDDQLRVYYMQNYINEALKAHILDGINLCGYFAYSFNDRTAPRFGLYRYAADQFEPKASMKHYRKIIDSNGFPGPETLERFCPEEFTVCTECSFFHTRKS
Protocol: (A) CDR sequences and VH domain framework region residues variable in Library F for anti-αKlotho sb106, according to the IMGT (international ImMunoGeneTics database) numbering scheme. IMGT CDR residues are underlined, IMGT framework region residues are not underlined, residues at IMGT positions which were randomized in the selection library are bold. (B) Specificity determination of anti-αKlotho sb106 by Fab-phage ELISA: sb106 Fab-phage were incubated with the following immobilized antigens: a complex of FGFR1c/αKlotho complex (aKL-R1), FGFR1c alone (R1), human αKlotho (Hu aKL) and mouse αKlotho (Mu aKL), or neutravidin (NA) and bovine serum albumin (BSA) as negative controls. After washing off unbound phage, bound phages were detected using an HRP-conjugated anti-phage antibody. Colorimetric HRP reagents allow for absorbance readings at 450 nm. […] The binding signals to immobilized human αKlotho reported are an average of two data sets.
Binding selections, phage ELISAs and Fab protein purification were performed as described. Briefly, phage from library F were cycled through rounds of panning with the binary complex of αKlotho extracellular domain and FGFR1c ligand-binding domain on 96-well Maxisorp Immunoplates (Fisher Scientific, Nepean, ON, Canada) as the capture target. […]

bovine serum albumin = target: T2, bovine serum albumin (bovine, UniProt P02769 25-607); test: Fab ELISA, Fab 5 ug/ml on immobilised antigen, anti-Flag-HRP, A450
T2 construct: also called BSA
Protocol: Fab ELISA using both human and mouse αKlotho was carried out for assessing cross-reactivity to human and mouse αKlotho (FIG. 16). Fabs (5 ug/ml) were incubated with immobilized αKlotho human, mouse, or neutravidin (NA) and SBA as negative controls. After washing off unbound Fab, bound Fab were detected using an HRP-conjugated anti-Flag antibody (Fabs have Falg tag on the end of their light chains). Colorimetric HRP reagents allow for absorbance readings at 450 nm.

mouse αKlotho = target: T3, mouse αKlotho (mouse, UniProt O35082 35-982); test: SPR (ProteOn XPR36), Fab captured by anti-IgG(H+L), mouse αKlotho injected in serial dilutions, Langmuir fit
T3 construct: also called Mu aKL
T3 sequence (looked up): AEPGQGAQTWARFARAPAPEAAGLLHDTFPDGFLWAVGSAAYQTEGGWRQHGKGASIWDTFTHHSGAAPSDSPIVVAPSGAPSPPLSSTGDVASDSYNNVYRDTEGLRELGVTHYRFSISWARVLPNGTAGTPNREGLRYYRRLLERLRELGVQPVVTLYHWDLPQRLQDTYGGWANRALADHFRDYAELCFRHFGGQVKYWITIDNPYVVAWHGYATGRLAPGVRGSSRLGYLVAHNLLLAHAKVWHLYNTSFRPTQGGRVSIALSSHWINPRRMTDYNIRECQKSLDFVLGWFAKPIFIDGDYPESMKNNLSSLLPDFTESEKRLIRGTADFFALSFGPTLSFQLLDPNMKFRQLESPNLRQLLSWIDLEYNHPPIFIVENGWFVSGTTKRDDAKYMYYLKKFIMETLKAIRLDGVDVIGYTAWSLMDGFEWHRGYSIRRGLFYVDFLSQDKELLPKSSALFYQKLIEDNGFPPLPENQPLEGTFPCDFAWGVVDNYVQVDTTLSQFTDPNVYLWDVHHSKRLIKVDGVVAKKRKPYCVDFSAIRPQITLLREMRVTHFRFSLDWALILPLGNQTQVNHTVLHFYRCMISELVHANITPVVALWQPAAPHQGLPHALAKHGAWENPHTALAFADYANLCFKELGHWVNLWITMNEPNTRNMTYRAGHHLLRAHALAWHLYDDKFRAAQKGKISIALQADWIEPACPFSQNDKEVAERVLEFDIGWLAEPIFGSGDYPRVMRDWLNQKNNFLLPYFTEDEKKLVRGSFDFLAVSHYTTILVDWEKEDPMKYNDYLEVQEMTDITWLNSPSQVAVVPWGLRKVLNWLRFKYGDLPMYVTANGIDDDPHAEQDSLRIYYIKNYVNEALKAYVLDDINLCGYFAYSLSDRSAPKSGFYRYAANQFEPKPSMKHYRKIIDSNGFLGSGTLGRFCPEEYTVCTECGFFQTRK
Protocol: Estimated affinities against human and mouse antigen for select αKlotho Fabs were obtained by surface plasmon resonance on a ProteOn XPR36 (FIG. 17). Fabs were captured using an anti-IgG(H+L) antibody and serial dilutions of αKlotho were injected. Binding curves were fitted to the Langmuir model. (A) Determined Kon, Koff and KD values. (B) and (C) Binding curves for human and mouse antigen respectively.

T2 sequence (P02769 25-607 limits assumed): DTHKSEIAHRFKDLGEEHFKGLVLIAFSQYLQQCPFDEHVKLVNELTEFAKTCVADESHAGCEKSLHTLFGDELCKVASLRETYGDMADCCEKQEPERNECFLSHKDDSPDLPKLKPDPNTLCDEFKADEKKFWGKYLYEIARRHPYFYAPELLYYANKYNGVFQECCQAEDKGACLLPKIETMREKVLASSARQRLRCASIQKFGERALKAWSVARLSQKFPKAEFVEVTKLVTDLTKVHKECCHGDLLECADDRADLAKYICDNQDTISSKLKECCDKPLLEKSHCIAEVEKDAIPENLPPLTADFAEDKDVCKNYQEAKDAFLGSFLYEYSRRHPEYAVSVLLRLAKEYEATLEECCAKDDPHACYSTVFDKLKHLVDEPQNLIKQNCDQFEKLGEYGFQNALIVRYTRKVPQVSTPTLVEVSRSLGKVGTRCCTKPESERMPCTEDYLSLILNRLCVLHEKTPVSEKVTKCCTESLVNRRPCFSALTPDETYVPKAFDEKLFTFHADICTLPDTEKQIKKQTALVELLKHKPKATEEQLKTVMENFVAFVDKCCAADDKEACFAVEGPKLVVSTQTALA

IC50 [1]: 1.7 nM
binding result (bovine serum albumin): no binding (tested: 5 ug/ml)
Kd (mouse αKlotho): 0.784 nM
koff (mouse αKlotho): 0.000159 s⁻¹
kon (mouse αKlotho): 202000 M⁻¹ s⁻¹
B1: sb106 Fab (Fab, V domains shown)
VH: EVQLVESGGGLVQPGGSLRLSCAASGFNISYYSIHWVRQAPGKGLEWVAYISPSYGYTSYADSVKGRFTISADTSKNTAYLQMNSLRAEDTAVYYCARYYVYASHGWAGYGMDYWGQGTLVTVSS
VL: DIQMTQSPSSLSASVGDRVTITCRASQSVSSAVAWYQQKPGKAPKLLIYSASSLYSGVPSRFSGSRSGTDFTLTISSLQPEDFATYYCQQAGYSPITFGQGTKVEIKR
notes: also called Fsb106; clone 48
